According to publication PMC5803273, “Design of ultra-swollen lipidic mesophases for the crystallization of membrane proteins with large extracellular domains” (Nature Communications, 2018):

Target: the molecule itself
Assay: crystal structure; in meso crystals from 10 wt% DSPG/MP swollen mesophase, 20 °C, 0.2 M (NH4)SO4, 0.02 M NaCl, 0.02 M Na acetate pH 4, 33% v/v PEG200; molecular replacement with 4HFI and 4NPQ; 6 Å; closed state

B1: Gloeobacter violaceus ligand-gated ion channel (GLIC) (natural protein)
chain: VSPPPPIADEPLTVNTGIYLIECYSLDDKAETFKVNAFLSLSWKDRRLAFDPVRSGVRVKTYEPEAIWIPEIRFVNVENARDADVVDISVSPDGTVQYLERFSARVLSPLDFRRYPFDSQTLHIYLIVRSVDTRNIVLAVDLEKVGKNDDVFLTGWDIESFTAVVKPANFALEDRLESKLDYQLRISRQYFSYIPNIILPMLFILFISWTAFWSTSYEANVTLVVSTLIAHIAFNILVETNLPKTPYMTYTGAIIFMIYLFYFVAVIEVTVQHYLKVESQPARAASITRASRIAFPVVFLLANIILAFLFF
notes: GLIC, Gloeobacter violaceus ligand-gated ion channel; expressed from pET20-MBP-thrombin-GLIC (N-terminal signal peptide, MBP, thrombin site, GLIC); MBP removed by thrombin; the pentamer is printed as 174 kDa, 1585 amino acids (317 per chain); also called Gloeobacter ligand-gated ion channel; GLIC pentamer; not shown: MBP, N-terminal, cleaved
- stoichiometry N: 5
